Measurements as given in US20220162261A1 (published 2022).
Numbered stars: 1 amine (or outer) side, 2 acyl side, 3 side chain; on linkers, the order of the positions; unused ones are H or OH. Bridge positions count the residues as written; N and C are the ends. Square brackets hold non-standard residues; d marks the D form. Primed or numbered codes have the meaning given here. Ends that are not written are not given here. * marks the point of attachment. Phe(4-OMe)″ = 4-methoxy-phenylalanine, COc1ccc(C[C@H](N[*:1])C(=O)[*:2])cc1; Phe(4-CF3) = N[C@@H](Cc1ccc(C(F)(F)F)cc1)C(=O)O; Phe(4-COOH) = N[C@@H](Cc1ccc(C(=O)O)cc1)C(=O)O; Phe(4-tBu) = CC(C)(C)c1ccc(C[C@H](N)C(=O)O)cc1; Phe(2,4-Cl2) = N[C@@H](Cc1ccc(Cl)cc1Cl)C(=O)O; Phe(2-CONH2) = NC(=O)c1ccccc1C[C@H](N)C(=O)O; Phe(4-CN) = N#Cc1ccc(C[C@H](N)C(=O)O)cc1; Phe(4-F) = N[C@@H](Cc1ccc(F)cc1)C(=O)O; Oleoyl = CCCCCCCC/C=C\CCCCCCCC(=O)*; NMeR = CN[C@@H](CCCNC(=N)N)C(=O)O; Palmitoyl = CCCCCCCCCCCCCCCC(=O)*; Myristoyl = CCCCCCCCCCCCCC(=O)*; Tic = O=C(O)[C@@H]1Cc2ccccc2CN1; β3hE = N[C@@H](CCC(=O)O)CC(=O)O; DIG = diglycolic acid (linker); Pen = CC(C)(S)[C@H](N)C(=O)O; Isovaleryl = CC(C)CC(=O)*; Hexanoyl = CCCCCC(=O)*

Molecular target: T1, human α4β7 integrin on cells (human, UniProt P13612 34-1032; P26010 20-798)
T1 construct: whole, on cells; also called α4β7 cell (Hu); RPMI8866 cells
Assay: RPMI8866 cell adhesion to MAdCAM-1

B1: SEQ ID NO: 107 (peptide)
peptide: Ac-[Pen][NMeR]SDTL[Pen][Phe(4-F)][dE][dK]-NH2
modifications: disulfide 1-7; not fully specified (residue 10); printed as (Ac Pen N-Me-R S D T L Pen F(4-F) e k NH2)2 DIG, disulfide Pen-Pen; also: homodimer: two subunits joined by DIG linker
In the case of B1, the IC50 is reported as > 25 nM.

B2: SEQ ID NO: 122 (peptide)
peptide: Ac-[Pen][NMeR]SDTL[Pen][Phe(4-CF3)][dE][dK]-NH2
modifications: disulfide 1-7; not fully specified (residue 10); printed as (Ac Pen N-Me-R S D T L Pen F(4CF3) e k NH2)2 DIG, disulfide Pen-Pen; also: homodimer: two subunits joined by DIG linker
With B2 the IC50 was > 50 nM.

For Ac-[Pen][NMeR]SDTL[Pen][Phe(4-tBu)][β3hE][dK](Isovaleryl) (disulfide 1-7) [SEQ ID NO: 171], the IC50 was > 10 nM.

Ac-[Pen][NMeR]SDTQ[Pen][Phe(4-tBu)][β3hE][dK]-NH2 (disulfide 1-7; also: homodimer: two subunits joined by IDA linker) [SEQ ID NO: 187] was tested, and the IC50 was > 100 nM.

In the case of Ac-[Pen][NMeR]SDDL[Pen][Phe(4-tBu)][β3hE][dK]-NH2 (disulfide 1-7; also: homodimer via IDA linker on D-Lys10 side chains) [SEQ ID NO: 191], the IC50 is reported as > 10000 nM.

B3: SEQ ID NO: 193 (peptide)
peptide: Ac-[Pen][NMeR]SDDL[Pen][Phe(4-tBu)][β3hE][dK]-NH2
modifications: disulfide 1-7; also: homodimer via IDA linker on D-Lys10 side chains, Alexa-647 label
In the case of B3, the IC50 is reported as > 100000 nM.

Ac-[Pen][NMeR]SDIL[Pen][Phe(4-tBu)][β3hE][dK]-NH2 (disulfide 1-7; also: homodimer via IDA linker carrying Alexa-647) [SEQ ID NO: 188] was tested, and the IC50 was ≤ 10 nM.

B4: SEQ ID NO: 128 (peptide)
peptide: Ac-[Pen][NMeR]SDTL[Pen]WE-OH
modifications: disulfide 1-7
SMILES: CC(=O)N[C@@H]1C(=O)N(C)[C@@H](CCCNC(=N)N)C(=O)N[C@@H](CO)C(=O)N[C@@H](CC(=O)O)C(=O)N[C@@H]([C@@H](C)O)C(=O)N[C@@H](CC(C)C)C(=O)N[C@H](C(=O)N[C@@H](Cc2c[nH]c3ccccc23)C(=O)N[C@@H](CCC(=O)O)C(=O)O)C(C)(C)SSC1(C)C
B4 was tested, and the IC50 was > 50 nM.

For XRSDTLXWK (not fully specified; (Ac Pen N-Me-R S D T L Pen W k OH)2 DIG; disulfide Pen-Pen) [SEQ ID NO: 76], the IC50 was > 10 nM.

B5: SEQ ID NO: 77 (peptide)
peptide: XRSDTLXWK
modifications: not fully specified; (Ac Pen N-Me-R S D T L Pen W N-Me-K NH2)2 DIG; disulfide Pen-Pen
B5 was tested, and the IC50 was > 100 nM.

B6: SEQ ID NO: 139 (peptide)
peptide: Ac-[Pen][NMeR]SDTL[Pen][Phe(4-CN)][β3hE][dK]-NH2
modifications: disulfide 1-7; not fully specified (residue 10); printed as (Ac Pen N-Me-R S D T L Pen F(4-CN) b-H-E k NH2)2 DIG, disulfide Pen-Pen; also: homodimer, two subunits joined by DIG linker
B6 was tested, and the IC50 was ≤ 10 nM.

For Ac-[Pen][NMeR]SDTL[Pen][Phe(4-tBu)][β3hE][dK](Palmitoyl) (disulfide 1-7) [SEQ ID NO: 172], the IC50 was 965 nM.

B7: SEQ ID NO: 93 (peptide)
peptide: Ac-[Pen][NMeR]SDTLC[Tic][dE][dK](DIG)-NH2
modifications: disulfide 1-7; also: homodimer (…)2 DIG: the two subunits are joined through the K10 NZ by the DIG linker
B7 was tested, and the IC50 was > 500 nM.

B8: SEQ ID NO: 100 (peptide)
peptide: Ac-[Pen][NMeR]SDTL[Pen][Phe(4-COOH)][dE][dK]-NH2
modifications: disulfide 1-7; not fully specified (residue 10); printed as (Ac Pen N-Me-R S D T L Pen F(4-COOH) e k NH2)2 DIG; also: homodimer: two subunits joined by DIG linker
B8 was tested, and the IC50 was ≤ 10 nM.

With Myristoyl-[Pen][NMeR]SDTL[Pen][Phe(4-tBu)][β3hE][dK]-NH2 (disulfide 1-7) [SEQ ID NO: 181] the IC50 was > 1000 nM.

For Ac-[Pen][NMeR]SDTL[Pen][Phe(4-tBu)][β3hE][dK](Hexanoyl) (disulfide 1-7) [SEQ ID NO: 170], the IC50 was > 10 nM.

For Oleoyl-[Pen][NMeR]SDTL[Pen][Phe(4-tBu)][β3hE][dK]-NH2 (disulfide 1-7) [SEQ ID NO: 180], the IC50 was > 1000 nM.

With Ac-[Pen][NMeR]SDTL[Pen][Phe(4-tBu)][β3hE][dK](Myristoyl) (disulfide 1-7) [SEQ ID NO: 175] the IC50 was > 500 nM.

B9: SEQ ID NO: 5 (peptide)
peptide: Ac-[dK]C[NMeR]SDTLCW[dK]-NH2
modifications: disulfide 2-8 (inferred); not fully specified; printed as DIG (Ac k C N-Me-R S D T L C W k NH2)2 DIG
notes: DIG printed at both ends
B9 was tested, and the IC50 was > 50 nM.

B10: SEQ ID NO: 20 (peptide)
peptide: C[NMeR]SDTL[Pen]W-NH2
modifications: disulfide 1-7; not fully specified (N-terminus); printed as PEG13 NH2 C N-Me-R S D T L Pen W NH2, disulfide C-Pen; also: N-terminal PEG13 linker, number of subunits not shown
notes: N-terminal linker printed without dimer brackets
B10 was tested, and the IC50 was > 50 nM.

B11: SEQ ID NO: 101 (peptide)
peptide: Ac-[Pen][NMeR]SDTL[Pen][Phe(2,4-Cl2)][dE][dK]-NH2
modifications: disulfide 1-7; not fully specified (residue 10); also: homodimer: two subunits joined by DIG linker
notes: F(2,4-ci) as printed
In the case of B11, the IC50 is reported as > 50 nM.

For Ac-[Pen][NMeR]SDTL[Pen][Phe(4-tBu)][β3hE][dK](4,4,4‑trifluorobutyryl) (disulfide 1-7) [SEQ ID NO: 169], the IC50 was > 10 nM.

B12: SEQ ID NO: 98 (peptide)
peptide: Ac-[Pen][NMeR]SDTL[Pen][Phe(2-CONH2)][dE][dK]-NH2
modifications: disulfide 1-7; not fully specified (residue 10); printed as (Ac Pen N-Me-R S D T L Pen F(2-carbamoyl) e k NH2)2 DIG, disulfide Pen-Pen; also: homodimer (…)2 DIG: the two subunits are joined through the K10 NZ by the DIG linker
B12 was tested, and the IC50 was > 50 nM.

B13: SEQ ID NO: 7 (peptide)
peptide: [Pen][NMeR]SDTL[Pen][dF]-NH2
modifications: disulfide 1-7; not fully specified (N-terminus); printed as DIG NH2 Pen N-Me-R S D T L Pen f NH2, disulfide Pen-Pen; also: DIG linker at N-terminus, number of subunits not shown
notes: as for B10
With B13 the IC50 was > 1000 nM.

In the case of XRSDTLXW (Ac Pen N-Me-R S D T L Pen W OH; disulfide Pen-Pen) [SEQ ID NO: 127], the IC50 is reported as > 100 nM.

B14: SEQ ID NO: 103 (peptide)
peptide: Ac-[Pen][NMeR]SDTL[Pen][Phe(4-OMe)″][dE][dK]-NH2
modifications: disulfide 1-7; not fully specified (residue 10); printed as (Ac Pen N-Me-R S D T L Pen F(4-OMe) e k NH2)2 DIG; also: homodimer: two subunits joined by DIG linker
B14 was tested, and the IC50 was > 25 nM.

B15: SEQ ID NO: 106 (peptide)
peptide: Ac-[Pen][NMeR]SDTL[Pen][Phe(4-tBu)][dE][dK]-NH2
modifications: disulfide 1-7; not fully specified (residue 10); printed as (Ac Pen N-Me-R S D T L Pen F(4tBu) e k NH2)2 DIG, disulfide Pen-Pen; also: homodimer: two subunits joined by DIG linker
With B15 the IC50 was ≤ 10 nM.

Ac-[Pen][NMeR]SDTL[Pen][Phe(4-tBu)][β3hE][dK](Oleoyl) (disulfide 1-7) [SEQ ID NO: 174] was tested, and the IC50 was > 1000 nM.

B16: SEQ ID NO: 6 (peptide)
peptide: C[NMeR]SDTLCW-NH2
modifications: disulfide 1-7 (inferred); not fully specified (N-terminus); printed as DIG NH2 C N-Me-R S D T L C W NH2; also: N-terminal DIG linker, number of subunits not shown
notes: as for B10
For B16, the IC50 was > 50 nM.

With Hexanoyl-[Pen][NMeR]SDTL[Pen][Phe(4-tBu)][β3hE][dK]-NH2 (disulfide 1-7) [SEQ ID NO: 176] the IC50 was > 50 nM.

For Isovaleryl-[Pen][NMeR]SDTL[Pen][Phe(4-tBu)][β3hE][dK]-NH2 (disulfide 1-7) [SEQ ID NO: 177], the IC50 was > 50 nM.

In the case of Palmitoyl-[Pen][NMeR]SDTL[Pen][Phe(4-tBu)][β3hE][dK]-NH2 (disulfide 1-7) [SEQ ID NO: 178], the IC50 is reported as > 1000 nM.
